For five molecules, EC50 results are on record in patent US20210317231A1 (BYONDIS B V, published 2021).

Assay [1] deals with T1, cynomolgus monkey 5T4 antigen (cynomolgus monkey, UniProt Q4R8Y9 35-420).
T1 construct: whole, on cells; also called cyno 5T4
T1 sequence (looked up): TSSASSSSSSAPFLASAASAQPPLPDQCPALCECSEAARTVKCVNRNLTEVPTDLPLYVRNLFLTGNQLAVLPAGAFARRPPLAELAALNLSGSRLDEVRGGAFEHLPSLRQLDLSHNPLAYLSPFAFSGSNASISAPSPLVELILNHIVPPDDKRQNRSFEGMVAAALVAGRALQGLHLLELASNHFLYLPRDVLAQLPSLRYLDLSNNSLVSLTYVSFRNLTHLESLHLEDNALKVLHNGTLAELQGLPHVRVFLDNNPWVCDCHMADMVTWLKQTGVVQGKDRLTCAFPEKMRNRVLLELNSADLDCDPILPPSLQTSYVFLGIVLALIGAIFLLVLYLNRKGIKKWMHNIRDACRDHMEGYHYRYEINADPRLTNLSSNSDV
Description: flow cytometry, CHOZN cells expressing cyno 5T4. (In general: A flow cytometer gives signals particle by particle.)

Assay [2] deals with T2, human 5T4 oncofoetal antigen (human, UniProt Q13641 32-420).
T2 construct: whole, on cells; also called hu 5T4; human 5T4 antigen
T2 sequence (looked up): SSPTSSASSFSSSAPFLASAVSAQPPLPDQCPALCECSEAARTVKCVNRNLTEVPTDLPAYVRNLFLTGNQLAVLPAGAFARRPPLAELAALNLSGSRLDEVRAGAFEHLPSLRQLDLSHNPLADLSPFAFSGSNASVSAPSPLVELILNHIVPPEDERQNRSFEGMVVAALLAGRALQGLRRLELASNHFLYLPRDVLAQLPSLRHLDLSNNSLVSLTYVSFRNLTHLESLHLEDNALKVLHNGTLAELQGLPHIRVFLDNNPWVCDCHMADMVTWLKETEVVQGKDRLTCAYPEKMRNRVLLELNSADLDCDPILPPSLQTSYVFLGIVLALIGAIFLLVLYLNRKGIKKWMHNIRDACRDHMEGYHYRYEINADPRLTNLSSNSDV
Description: flow cytometry, CHOZN cells expressing hu 5T4.

The EC50 is the concentration at which the effect is half-maximal.

B1: humanized anti-5T4 antibody 825b with HC-41C mutation (antibody, human IgG1, kappa, V domains shown)
VH: EVQLEESGGGLVKPGGSLRLSCAASGIDLSSYGMGWVRQACGKGLEWVSIISRNSVTYYATWAKGRFTISRDNSKNTLYLQMNSLRAEDTAVYYCARRATYSGALGYFDIWGRGTLVTVSS
VL: EIVMTQSPSSLSASVGDRVTITCQASENIYSTLAWYQQKPGKAPKLLIYDAFDLASGVPSRFSGSGSGTDYTLTISSLQPEDFATYYCQQGYSGTNVDNAFGQGTKLEIKR
With B1, the EC50 in assay [1] was 0.46 µg/mL; in assay [2], 0.16 µg/mL.

B2: humanized anti-5T4 antibody 825a with HC-41C mutation (antibody, human IgG1, kappa, V domains shown)
VH: EVQLVESGGDLAQPGGSLRLSCAVSGIDLSSYGMGWVRQACGKGLEWVSIISRNSVTYYATWAKGRFTISRDNSKNTVYLQMTSLRAEDTALYFCARRATYSGALGYFDIWGQGTLVTVSS
VL: EIVMTQSPSSLSASVGDRVTITCQASENIYSTLAWYQQKPGKAPKLLIYDAFDLASGVPSRFSGSGSGTDYTLTISSLQPEDFATYYCQQGYSGTNVDNAFGQGTKLEIKR
With B2, the EC50 came to 0.53 µg/mL in assay [1] and 0.15 µg/mL in assay [2].

B3: humanized anti-5T4 antibody 825c with HC-41C mutation (antibody, human IgG1, kappa, V domains shown)
VH: EVQLEESGGGLVKPGGSLRLSCAASGIDLSSYGMGWVRQACGKGLEWVSIISRNSVTYYATWAKGRFTISRDNSKNTLYLQMNSLRAEDTAVYYCARRATYSGALGYFDIWGRGTLVTVSS
VL: GYDMTQSPSSVSASVGDRVTITCQASENIYSTLAWYQQKPGKAPKLLIYDAFDLASGVPSRFKGSGSGTEYTLTISSLQPEDFATYYCQQGYSGTNVDNAFGGGTKVEIKR
As to B3, the EC50 amounted to 0.42 µg/mL in assay [1] and 0.21 µg/mL in assay [2].

B4: humanized anti-5T4 antibody 833c with HC-41C mutation (antibody, human IgG1, kappa, V domains shown)
VH: EVQLEESGGGLVKPGGSLRLSCAASGIDLSHYVVGWVRQACGKGLEWVSIIYGSGRTYYANWAKGRFTISRDNSKNTLYLQMNSLRAEDTAVYYCARDASVSVYYWGYFDLWGRGTLVTVSS
VL: DIQMTQSPSTLSASVGDRVTITCQASQSIGSELAWYQQKPGKAPKLLIYRASTLESGVPSRFSGSGSGTEFTLTISSLQPDDFATYYCQQGYTYSEIDNAFGQGTKVEIKR
Take B4: the EC50 in assay [1] came out at 0.17 µg/mL; in assay [2], 0.18 µg/mL.

B5: humanized anti-5T4 antibody 833d with HC-41C mutation (antibody, human IgG1, kappa, V domains shown)
VH: QSLEESGGGLVQPGGSLRLSCAASGIDLSHYVVGWVRQACGKGLEWIGIIYGSGRTYYANWAKGRFTISRHNSKNTLYLQMNSLRAEDTAVYYCARDASVSVYYWGYFDLWGQGTLVTVSS
VL: DIQMTQSPSSLSASVGDRVTITCQASQSIGSELAWYQQKPGQAPKLLIYRASTLESGVPSRFSGSGSGTEFTFTISSLQPEDLATYYCQQGYTYSEIDNAFGQGTKLEIKR
With B5, the EC50 was determined as 0.16 µg/mL in assay [1] and 0.18 µg/mL in assay [2].
